Here are results for 7 molecules from patent US20040091964A1, “Modified proteins, isolated novel peptides,and uses thereof” (priority 2003, published 2004).

Entries after “also recorded” stand apart in the source; their conditions may differ.

For one series, the system named is MDCK cells. Kind of series: Localization of GFP fusion proteins in polarized MDCK cells by confocal microscopy. The conditions noted are these: GFP fusion protein, confluent MDCK cells on Transwell membranes. It counts as cell-based, canine. Here is the method: The cMOAT-gfp and MRP1-gfp constructs supra (1 μg of DNA per transfection) were separately transfected into MDCK cells and L1210 cells using a UpofectAMINE transfection kit (Life Technologies, Inc.). Transfections of MDCK cells were carried out using Transwell plates (Costar, 24 mm×3 μm polycarbonate membrane) to enable cell polarization. Cells were imaged using a NikonTE300 inverted microscope linked to a Radiance 2000 Laser Scanning System for confocal microscopy and Lasersharp 2000 imaging software (Bio-Rad).
To conveniently detect the localization of the proteins under investigation, GFP fusion proteins were produced and their localization visualized using confocal microscopy to visualize the fluorescent product, as described supra. […]

In series [1] the test system is L1210 cells. Kind of series: [3H]paclitaxel transport from L1210 cells expressing modified MDR3. It counts as cell-based, mouse. The conditions noted are these: L1210 cells stably expressing the polypeptide without GFP tag, compared to control L1210 cells. On the procedure: The transport of [^3H]paclitaxel is determined from L1210 cells expressing the modified MDR3 polypeptide and compared to the efflux of [^3H]paclitaxel from control L1210 cells not ectopically expressing any MDR3 polypeptide.

The test system of series [2] is L1210 cells. Briefly: 2,4-Dinitrophenyl glutathione (DNP-GS) transport from L1210 cells. It counts as cell-based, mouse. The conditions noted are these: L1210 cells expressing the protein, compared with control L1210 cells; spectrophotometry. The text has this: DNP-GS was generated in L1210 cells by exposure to 1-chloro-2,4-dinitrobenzene and its efflux determined as described previously (Olive et al., (1994) Biochim. Biophys. Acta 1224, 264-268).

For series [3], the system named is L1210 cells. Kind of series: Survival of L1210 cells in the presence of Busulfan. It is filed as cell-based, mouse. The conditions noted are these: versus non-transfected L1210 cells or L1210 cells expressing native cMOAT. On the procedure: Accordingly, the ability of modified cMOAT polypeptides to confer resistance to Busulfan was determined in L1210 cells. In particular, the ΔcMOAT polypeptide having the amino acid sequence set forth in SEQ ID NO: 4, was expressed in L1210 cells as described in Example 1. The transfected cells were exposed to a range of concentrations of Busulfan. The survival of wild type L1210 cells, and transfected L1210 cells expressing either native cMOAT or ΔcMOAT, was determined in the presence of Busulfan. Survival was also assessed relative to the growth of cells that had not been exposed to Busulfan. Cell growth and survival were assayed using standard procedures (Denizot et al (1986), J. Immunol. Methods 89, 271-277).

In series [4] the test system is L1210 cells. Kind of series: 6-mercaptopurine transport (6-thio-IMP efflux) from L1210 cells expressing modified MRP4. The conditions noted are these: L1210 cells stably expressing the polypeptide without GFP tag, compared to control L1210 cells or L1210 cells expressing native MRP4. It is filed as cell-based, mouse. Here is the method: Radiolabeled 6-mercaptopurine is added to L1210 cells expressing the modified MRP4 polypeptide and the efflux of 6-thio-IMP compared to the efflux of 6-thio-IMP from L1210 cells expressing native MRP4, or alternatively, the efflux of 6-thio-IMP from control L1210 cells not ectopically expressing any MRP4 polypeptide.

Take “T1543A: modified cMOAT polypeptide with Thr1543 mutated to alanine, tested as cMOAT-gfp fusion”: the “membrane localization in polarized MDCK cells” value (from here on “membrane localization”) with MDCK cells is “both apical and basolateral targeting with an increase in protein accumulation in intracellular vesicles; also recorded: non-polarized distribution”.
Turning to “modified MDR3 polypeptide: modified human MDR3 polypeptide lacking the T-K-F motif (terminal 4 amino acids deleted)”, in the series on L1210 cells [1], the “efflux of [3H]paclitaxel” value is listed as “significantly higher efflux”.
Consider “cMOAT: native human canalicular multispecific organic anion transporter (MRP2) [reference compound]”, for which the “efflux of DNP-GS into the supernatant” value in the series on L1210 cells [2] is “little evidence for the transport of DNP-GS; also recorded: minimal; also recorded: same rate of efflux”.
As for “S1542A: modified cMOAT polypeptide with Ser1542 mutated to alanine, tested as cMOAT-gfp fusion”, the “membrane localization” value in the series on MDCK cells is given as “fluorescence appears to be in sub-membrane vesicles”.
Take “F1545A: modified cMOAT polypeptide with Phe1545 mutated to alanine, tested as cMOAT-gfp fusion”: the “membrane localization” value in the series on MDCK cells is “did not exhibit modified localization; also recorded: did not alter normal targeting; also recorded: same localization as the native protein”.
As for “ΔcMOAT: modified human cMOAT polypeptide wherein the C-terminal T-K-F motif was deleted, without a GFP tag”, in the series on L1210 cells [2], the “efflux of DNP-GS into the supernatant” value is recorded as “significantly higher efflux; also recorded: transport 2,4-dinitrophenyl glutathione; also recorded: increased transport”. Also, the “resistance to Busulfan conferred on L1210 cells” value in the series on L1210 cells [3] is recorded as “significantly enhanced resistance to Busulfan”.

B1: modified MRP4 polypeptide: modified human MRP4 polypeptide lacking the T-K-F motif (terminal 3 amino acids deleted) (protein, listed as Homo sapiens)
chain: MLPVYQEVKPNPLQDANLCSRVFFWWLNPLFKIGHKRRLEEDDMYSVLPEDRSQHLGEELQGFWDKEVLRAENDAQKPSLTRAIIKCYWKSYLVLGIFTLIEESAKVIQPIFLGKIINYFENYDPMDSVALNTAYAYATVLTFCTLILAILHHLYFYHVQCAGMRLRVAMCHMIYRKALRLSNMAMGKTTTGQIVNLLSNDVNKFDQVTVFLHFLWAGPLQAIAVTALLWMEIGISCLAGMAVLIILLPLQSCFGKLFSSLRSKTATFTDARIRTMNEVITGIRIIKMYAWEKSFSNLITNLRKKEISKILRSSCLRGMNLASFFSASKIIVFVTFTTYVLLGSVITASRVFVAVTLYGAVRLTVTLFFPSAIERVSEAIVSIRRIQTFLLLDEISQRNRQLPSDGKKMVHVQDFTAFWDKASETPTLQGLSFTVRPGELLAVVGPVGAGKSSLLSAVLGELAPSHGLVSVHGRIAYVSQQPWVFSGTLRSNILFGKKYEKERYEKVIKACALKKDLQLLEDGDLTVIGDRGTTLSGGQKARVNLARAVYQDADIYLLDDPLSAVDAEVSRHLFELCICQILHEKITILVTHQLQYLKAASQILILKDGKMVQKGTYTEFLKSGIDFGSLLKKDNEESEQPPVPGTPTLRNRTFSESSVWSQQSSRPSLKDGALESQDTENVPVTLSEENRSEGKVGFQAYKNYFRAGAHWIVFIFLILLNTAAQVAYVLQDWWLSYWANKQSMLNVTVNGGGNVTEKLDLNWYLGIYSGLTVATVLFGIARSLLVFYVLVNSSQTLHNKMFESILKAPVLFFDRNPIGRILNRFSKDIGHLDDLLPLTFLDFIQTLLQVVGVVSVAVAVIPWIAIPLVPLGIIFIFLRRYFLETSRDVKRLESTTRSPVFSHLSSSLQGLWTIRAYKAEERCQELFDAHQDLHSEAWFLFLTTSRWFAVRLDAICAMFVIIVAFGSLILAKTLDAGQVGLALSYALTLMGMFQWCVRQSAEVENMMISVERVIEYTDLEKEAPWEYQKRPPPAWPHEGVIIFDNVNFMYSPGGPLVLKHLTALIKSQEKVGIVGRTGAGKSSLISALFRLSEPEGKIWIDKILTTEIGLHDLRKKMSIIPQEPVLFTGTMRKNLDPFNEHTDEELWNALQEVQLKETIEDLPGKMDTELAESGSNFSVGQRQLVCLARAILRKNQILIIDEATANVDPRTDELIQKKIREKFAHCTVLTIAHRLNTIIDSDKIMVLDSGRLKEYDEPYVLLQNKESLFYKMVQQLGKAEAAALTETAKQVYFKRNYPHIGHTDHMVTNTSNGQPSTLTIFE
Consider B1, for which, in the series on L1210 cells [4], the “efflux of 6-thio-IMP” value was “significantly higher efflux”.
